Measured values as given in publication PMC11088876, “Activin E is a transforming growth factor β ligand that signals specifically through activin receptor-like kinase 7” (Biochemical Journal, 2024).

Target: the molecule itself
Experiment: SDS-PAGE under non-reducing and reducing conditions with anti-Flag western blot; conditioned medium of transfected ExpiCHO-S cells; 15% SDS gels; covalent (disulfide-linked) dimer against monomer

B1: Flag-tagged mature ActE from Construct II (ligand, human, UniProt P58166 237-350, looked up)
chain: TPTCEPATPLCCRRDHYVDFQELGWRDWILQPEGYQLNYCSGQCPPHLAGSPGIAASFHSAVFSLLKANNPWPASTSCCVPTARRPLSLLYLDHNGNVVKTDVPDMVVEACGCS
notes: A233R lies in the furin site before the cut and is surmised not to stand in the mature chain; Furin processing was incomplete: the medium also holds singly and doubly unprocessed species and a smaller clipping product; also called Flag-ActE; ActE Construct II; source: ExpiCHO-S, transfected, conditioned medium (concentrated 20x); not shown: Flag, N-terminal, kept
stoichiometry N: 2
